According to the supplement of paper PMC10266784:

B1: library; numbered along this chain (parent)
chain: MAAAAAAAAEQQSSNGPVKKSMREKAVERRSVNKEHNSNFKAGYIPIDEDRLHKTGLRGRKGNLAICVIILLFILAVINLIITLVIWAVIRIGPNGCDSMEFHESGLLRFKQVSDMGVIHPLYKSTVGGRRNENLVITGNNQPIVFQQGTTKLSVENNKTSITSDIGMQFFDPRTQNILFSTDYETHEFHLPSGVKSLNVQKASTERITSNATSDLNIKVDGRAIVRGNEGVFIMGKTIEFHMGGNMELKAENSIILNGSVMVSTTRLPSSSSGDQLGSGDWVRYKLCMCADGTLFKVQVTSQNMGCQISDNPCGNTH

Variants of: B1
Assay: SGCB cell-surface expression functional score (HA stain, bin4 vs bin1, normalised to synonymous) (log10 ratio); higher = more cell-surface SGCB (functional)
Method in brief: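 HEK293 cells stably expressing alpha-, gamma- and delta-sarcoglycan received codon-saturation libraries of HA-tagged, YFP-fused human beta-sarcoglycan by lentiviral transduction at MOI <0.1, performed in duplicate. Cells positive for YFP were sorted after 72 hours and cultured for 5–7 days, then stained on ice with Alexa Fluor 647 anti-HA and fixed. Fixed cells were sorted into four 5% intensity bins and amplicon-sequenced, and the log ratio of highest-bin to lowest-bin variant frequency, as a median over codons and transductions, gives the functional score. Per section, synonymous variants were scaled to mean 0, SD 0.5.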

SGCB cell-surface expression functional score (log10): each site, then its substitutions
Q303: F 0.11, N -0.9, W -0.98, R -0.45, S -0.43, V 0.37, Y -0.3, G 0.2, P 0.04, T -0.46, A -0.65, D 0.36, H 0.07, K -0.33, L -0.16, M -0.16, C 0.15, I 0.25, E 0.08
G293: A -0.12, P -0.23, V -0.73, C 0.03, H 0.14, E 0.05, S -0.48, R -0.02, I -0.08, Y -0.17, M -0.11, F -0.08, K -0.71, T 0.13, L -0.36, W -0.35, D 0.2, Q 0.3, N 0.21
L287: P 0.16, V -0.04, Q -1.3, M -2.09, R -1.38, S -1.02, T -0.72, W -1.34, Y -0.22, N -2.02, K -0.59
C290: T -0.17, L -0.51, S -0.53, A -0.08, M -0.16, N -0.11, Q -0.2, I 0.02, E 0.01, V -0.97, K -0.15, P -1.32, H -0.47, R -0.56, Y -0.57, W 0.07, F -0.75, G -0.08, D 0.2
M289: C -0.54, V -0.24, D -0.92, E 0.05, T -0.81, I 0.1, H -0.85, Y 0.01, Q -1.35, S -0.79, F -1.2, K -0.23, A -1, R -0.22, G -1.37, N 0.11, P -1.06, L -0.19, W -1.6
F296: H -0.39, G -0.62, P -0.5, C -0.18, R -0.46, N -0.63, T -0.42, W 0.16, L -0.05, V -0.33, Y 0.25, M -0.13, Q -0.65, I 0.21, K -1.28, D -0.42, S -0.26, E -1.06, A -0.24
T301: S -0.16, H -0.15, G 0.13, V -0.21, R -0.14, W 0.96, C 0.31, P -0.57, E 0.06, Q 0.16, F -0.72, N -0.45, I -0.29, Y 0.14, K 0.28, M 0.86, A -0.27, L -0.56, D 0.33
N304: T -0.51, V -1.11, Q -0.11, I -0.42, H 0.26, F -0.09, G 0.09, Y -0.11, P -0.2, K 0.07, L -0.14, A -0.43, S -0.45, E 0.56, M -1.75, R -0.41, D -0.34, C -0.06, W 0.2
L295: E -0.95, C -0.2, Y -0.02, R -0.52, D -1.13, F -0.18, N -1.17, G -0.87, M -0.78, P -0.13, T 0.03, W -1.84, K -0.07, V -0.12, H -0.62, I 0.11, Q -0.13, S -0.42, A -0.91
C288: P -0.81, F -0.71, I -0.55, M -1.54, Y -0.01, V -0.72, N -0.51, S -0.07, H -1, G -0.27, A -0.03, R -0.93, W -0.68, T -0.27, K -1.15, D 0.01, E 0.01, L -0.83, Q -0.16
T294: L 0.29, P 0.04, V 0.14, G 0.5, A 0.08, K -0.03, D 0.14, F 0.01, W 0.57, E -0.33, I -0.04, M 0.19, N 0.12, C -0.97, H -0.74, R -0.13, Y -0.33, S 0.17, Q 0.06
K297: H -0.02, C -0.07, V -0.02, N 0.46, R 0.25, Q -0.3, T -0.16, I -0.54, F -0.47, Y -0.13, S -0.17, P 0.02, E 0.15, D 0.03, G -0.21, L -0.43, A -0.41, M 0.17, W -1.48
D292: Y -0.33, A -0.14, H -0.19, C 0.07, I 0.06, F -0.23, Q -1.17, S -0.12, N -0.13, E 0.1, W -2.02, T -0.67, L 0.07, R -1.29, P -0.16, G -0.42, K -0.24, M 0.17, V -0.08
V298: Q -1.06, R -0.21, F -1.04, A -0.24, E 0.17, P -0.53, L -0.21, W 0.29, G -0.37, H -0.85, Y -1.36, M 0.21, K 0.19, N -0.06, C 0.01, I 0.1, D -0.58, T -0.74, S -0.15
S302: D -1.03, N -1.18, G -0.36, A -0.01, I 0.38, T -1.04, L -0.93, W -0.56, F 0.61, C -0.53, M -1.5, P -0.74, Y -0.06, E -0.24, R 0.1, K 0.45, H 0.54, V 0.35, Q -1.84
A291: T 0.17, H -0.89, Q -0.72, D -0.71, Y 0.25, R 0.01, L -0.71, P 0.02, S -0.06, N 0.17, I -0.64, W -1.18, G -0.19, K -0.46, V -0.85, E -0.98, C -0.42, M -2.2, F 0.25
V300: Y -0.33, E -0.69, M -1.6, I -0.28, G -0.65, P -0.35, L -1.14, C -0.27, Q -1.07, K -2.02, D -0.2, A -0.02, W -0.26, N -0.77, S -0.35, T 0.05, F -0.2, H -0.8, R -0.27
Q299: H -0.17, T 0.05, L -0.23, R 0, F -0.05, C -1.36, A 0.08, G -0.02, S 0.08, E 0.61, N 0.04, I 0.37, P -0.01, M -0.25, V 0.01, W 0.13, D 0.16, Y -0.66, K 0.21
